Columns and labels:
Test in all cases: IEDB peptide-MHC binding, purified MHC/competitive/radioactivity; ≥ and ≤ were set here for values at or beyond the usual limits of such assays
Details in all cases: source organism: hepatitis C virus genotype 1a
HLA-A*02:01 = molecular target: HLA-A*02:01
HLA-B*07:02 = molecular target: HLA-B*07:02
HLA-B*08:01 = molecular target: HLA-B*08:01
HLA-B*40:01 = molecular target: HLA-B*40:01
HLA-B*40:02 = molecular target: HLA-B*40:02

Row | Sequence | IC50 (HLA-A*02:01) [nM] | IC50 (HLA-B*07:02) [nM] | other results
1 | FLVGQLFTF | 67 |  | 
2 | GVDPNIRTGV | 351 |  | 
3 | HPALVFDIT |  | 160 | 
4 | HSKKKCDEL |  |  | IC50 (HLA-B*08:01): 764 nM
5 | IPFYGKAI |  | 497 | 
6 | LEDRDRSEL |  |  | IC50 (HLA-B*40:01): 426 nM; IC50 (HLA-B*40:02): 4270 nM
7 | RLWHYPCTV | 12 |  | 
8 | RPALVFDIT |  | 43 | 
9 | SLLAPGAKQNV | 513 |  | 
10 | VLSDFKTWL | 305 |  | 

From the Immune Epitope Database (IEDB)
